Reference: patent publication US6312887

Target: T1, STAT-1alpha wild type (transfected in U3A cells) (Homo sapiens) (UniProt P42224)
T1 sequence: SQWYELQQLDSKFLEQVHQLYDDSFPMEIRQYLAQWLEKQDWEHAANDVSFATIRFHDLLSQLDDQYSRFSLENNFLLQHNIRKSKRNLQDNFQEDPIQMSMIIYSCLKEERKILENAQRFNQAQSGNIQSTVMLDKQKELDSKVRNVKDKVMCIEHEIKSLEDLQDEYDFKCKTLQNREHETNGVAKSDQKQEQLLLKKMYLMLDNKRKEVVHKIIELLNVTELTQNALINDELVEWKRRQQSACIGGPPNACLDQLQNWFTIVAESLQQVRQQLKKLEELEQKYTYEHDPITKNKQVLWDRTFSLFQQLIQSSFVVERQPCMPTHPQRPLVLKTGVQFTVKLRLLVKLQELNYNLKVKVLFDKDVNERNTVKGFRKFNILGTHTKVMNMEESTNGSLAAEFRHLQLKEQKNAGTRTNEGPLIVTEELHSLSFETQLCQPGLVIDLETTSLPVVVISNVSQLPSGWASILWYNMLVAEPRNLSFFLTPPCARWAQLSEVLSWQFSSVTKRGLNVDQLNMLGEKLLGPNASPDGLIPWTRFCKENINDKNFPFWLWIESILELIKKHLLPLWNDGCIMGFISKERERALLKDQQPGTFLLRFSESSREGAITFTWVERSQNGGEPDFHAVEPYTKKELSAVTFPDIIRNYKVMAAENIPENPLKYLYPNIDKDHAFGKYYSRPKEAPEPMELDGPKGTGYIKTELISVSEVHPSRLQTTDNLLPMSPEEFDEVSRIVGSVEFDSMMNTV
Experiment: cell_activity
Details: luciferase reporter in U3A cells, IFN-gamma 5 ng/ml 10 h

“GATCAGTTCCCGTCAATCNATGATCCAGTTCCCGTCAATGATCCCCGGGATC (double strand) [tandem weak c-fos STAT-1 sites reporter enhancer]” was tested. Which activity (fold induction) did it give?
The activity (fold induction) was 2.
